Results taken from US8828676B2, “Methods for differentiating plasma-derived protein from recombinant protein in a sample” (Baxter International Inc., priority 2007, dated 2014).
Like-named read-outs stand apart in the source and are kept apart here.

Tests used:
[1] = biological target: binding of SNA to plasma VWF (Sambucus nigra, UniProt Q41358); conditions: for Inhibition of binding of SNA to plasma VWF: plasma VWF:Ag 5 mU/mL
[2] = test system: Maackia amurensis agglutinin (MAA); experiment: MAA binding of plasma VWF and rVWF after neuraminidase treatment; conditions: for Binding to MAL after addition of neuraminidase: neuraminidase 1-20 mU/mL
Text: In order to confirm that the recombinant protein did express sialic acid moieties, but in a different configuration than the plasma derived sialic acid, a binding assay that measures binding of protein to α2,3-linked neuraminic acid is used to detect the recombinantly expressed α2,3-linked neuraminic acid on the recombinant protein. The lectin, Maackia amurensis agglutinin (MAA), which binds α2,3-linked neuraminic acid, was used to determine if desialylation of rVWF occurred in the presence of neuraminidase.
Anti-vWF plates were prepared as above. Both the human plasma pool and the rVWF preparation were diluted to obtain VWF:Ag concentrations of 5 mU/mL and 2.5 mU/mL. 100 μL/well of the sample dilutions were loaded to the coated, periodate-oxidized plates and incubated for 60 minutes at RT and washed afterwards. The neuraminidase digest was then carried out on the plate. Neuraminidase (Sigma) was used at the concentrations of 0, 1, 5, 10 and 20 mU/mL. Afterwards, the plates were washed and incubated with the biotinylated MAA (Vector, 1 μg/mL) for 60 minutes at RT. The incubation was terminated by washing, after which the plates were incubated 30 minutes at RT with streptavidin peroxidase (DakoCytomation, 1/4000). After a final washing step, the bound peroxidase was measured as previously described.

[3] = biological target: T1, Sambucus nigra agglutinin (SNA) (Sambucus nigra, UniProt Q41358); conditions: plasma pool 2.88-0.18 mU VWF:Ag/mL; rVWF 311-19 mU/mL
[4] = biological target: T1, Sambucus nigra agglutinin (SNA); conditions: for Change of SNA binding after neuraminidase treatment: neuraminidase 0-20 mU/mL, 2 hours 37° C.
[5] = biological target: T1, Sambucus nigra agglutinin (SNA); conditions: mean of six tests, human plasma pool = 100%

Chain of binding of SNA to plasma VWF (Q41358 309-570 limits assumed): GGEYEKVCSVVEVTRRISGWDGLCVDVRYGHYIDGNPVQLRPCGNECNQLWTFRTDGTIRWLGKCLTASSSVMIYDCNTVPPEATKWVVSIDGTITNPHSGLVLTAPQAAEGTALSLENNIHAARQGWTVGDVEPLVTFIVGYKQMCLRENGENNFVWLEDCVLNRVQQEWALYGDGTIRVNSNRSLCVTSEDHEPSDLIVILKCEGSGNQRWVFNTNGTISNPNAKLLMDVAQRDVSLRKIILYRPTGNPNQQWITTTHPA
Chain of binding of SNA to plasma VWF (Q41358 29-289 partner limits assumed): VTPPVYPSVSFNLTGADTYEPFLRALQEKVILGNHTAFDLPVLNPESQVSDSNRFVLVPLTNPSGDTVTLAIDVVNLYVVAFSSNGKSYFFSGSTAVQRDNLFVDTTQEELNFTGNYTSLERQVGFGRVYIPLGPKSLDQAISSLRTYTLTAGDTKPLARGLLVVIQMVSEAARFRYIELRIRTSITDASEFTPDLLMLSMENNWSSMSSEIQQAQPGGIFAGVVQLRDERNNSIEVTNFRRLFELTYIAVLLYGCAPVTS

CC(=O)N[C@H]1[C@H]([C@H](O)[C@H](O)CO)O[C@@](O[C@H]2[C@@H](O)[C@@H](CO)O[C@@H](O[C@H]3[C@H](O)[C@@H](O)C(O)O[C@@H]3CO)[C@@H]2O)(C(=O)O)C[C@@H]1O (some centres unmarked) [3′-sialyllactose]
Effect on binding of SNA to plasma VWF ([1]; assay as in Example 5): no effect

CC(=O)N[C@H]1[C@H]([C@H](O)[C@H](O)CO)O[C@@](OC[C@H]2O[C@@H](O[C@H]3[C@H](O)[C@@H](O)[C@H](O)O[C@@H]3CO)[C@H](O)[C@@H](O)[C@H]2O)(C(=O)O)C[C@@H]1O [6′-sialyllactose]
Inhibition of binding of SNA to plasma VWF ([1]; 10 μM): approximately 25%
Inhibition of binding of SNA to plasma VWF ([1]; 100 μM): ~75%

CHO cell-derived rVWF: recombinantly produced von Willebrand factor from Chinese hamster ovary (CHO) cells
Binding to MAL after addition of neuraminidase [2]: abolished
MAA lectin binding ([2]; without neuraminidase): bound
SNA binding [3]: no binding
Change of SNA binding after neuraminidase treatment ([4]; VWF:Ag 5 and 2.5 mU/mL): not altered
SNA binding ([4]; without neuraminidase, VWF:Ag 5 and 2.5 mU/mL): no binding

plasma VWF: plasma derived von Willebrand factor, measured in a human plasma pool
Binding to MAL after addition of neuraminidase [2]: abolished
SNA binding [3]: clear dose dependent relation
Change of SNA binding after neuraminidase treatment ([4]; VWF:Ag 5 and 2.5 mU/mL): reduced proportional to the concentration of the neuraminidase applied
SNA binding relative to initially measured ([4]; neuraminidase 20 mU/mL): less than 95%
SNA binding Mean (SNA binding measured) ([5]; Example 7, 0 U rVWF spiked): 137.2%
SNA binding Mean (SNA binding found) ([5]; Example 8, 0 rVWF spiked): 123.5%
